Results reported in PMC4939424, “Phosphatidylinositol 3-Kinase-Associated Protein (PI3KAP)/XB130 Crosslinks Actin Filaments through Its Actin Binding and Multimerization Properties In Vitro and Enhances Endocytosis in HEK293 Cells” (Frontiers in Endocrinology, 2016).

Molecular target: the molecule itself
Assay: native gel or EMSA; blue native (BN)-PAGE of immuno-purified FLAG-PI3KAP/XB130 on NativePAGE Novex Bis-Tris gels, immunoblot with anti-FLAG antibody

B1: FLAG-tagged recombinant full-length PI3KAP/XB130 (natural protein, mouse, UniProt Q5DTU0-2 1-843, looked up)
chain: MERYKAQGCCCLVVQRRILQVSASLEQLLTELDDFLKVLDQENLSSAAVLKKSGLSELLRLYTKSSSSDEEYIYMNKVSVNGEQNSASPDKVPEEQGPLTNGEPSQHSSAPQKSLPDLPPPKMIPERKQPTVPKIESPEGYYEEAEPFDRSINEDGEAVSSSYESYDEDENSKGKAAPYQWPSPEASIELMRDARICAFLWRKKWLGQWAKQLCVIRDTRLLCYKSSKDHSPQLDVNLRGSSVVHKEKQVRKKGHKLKITPMNADVIVLGLQSKDQAEQWLRVIQEVSGLPSEGASEGNQYTPDAQRLNCQKPDIAEKYLSAAEYGITINGHPEIPETKDVKKKCSAGLKLSNLMNLGRKKSTSLEPPERSLETSSYLNVLVNSQWKSRWCFVRDSHLHFYQDRNRSKVAQQPLSLVGCDVLPDPSPDHLYSFRILHNGEELAKLEAKSSEEMGHWLGLLLSESGSKTDPEELTYDYVDAERVSCIVSAAKTSLLLMQRKFSEPNTYIDGLPSRDCQDDLYDDVEVSELIAVVEPAEEAAPAVDANSGSEPDRVYLDLTPVKSFLHSSSEAQAQASLPAVPHQDDVAETLTVDPKPGTTPEEPHTESPGDPEVQQRQPEVQESSEPIEPTPRITMVKLQAEQQRISFPANCPDTMASAPIAASPPVKEKLRVTSAEIKLGKNRTEAEVKRYTEEKERLERSKEEIRGHLAQLRREKRELKETLLRCTDKGVLAKLEQTLKKIDEECRMEESRRVDLELSIMEVKDNLKKAEAGPVTLGTTVDTTHLDNMSPRPQPKAATPNPPPDSTPVNSASVLKNRPLSVMVTGKGTVLQKAKEWEKKGAS
notes: also called FLAG-PI3KAP/XB130; FLAG-PI3KAPXB130; source: HEK293T, transfected (pShuttle2): purified with anti-FLAG M2 agarose and eluted with FLAG peptide; also in lysate (co-immunoprecipitation)
- binding result: binds
